In EP4748861A1 (Duality Biologics (Suzhou) Co., Ltd., dated 2025):

Assays:
[1] = biological target: T1, human EGFR (His-Avi Tag, Kactus Biosystem, EGF-HM401) (human, UniProt P00533 25-645); assay: SPR, Biacore T200; ratio of affinities
T1 construct: Bought soluble protein used as SPR analyte; also called hEGFR; not shown: His-Avi tag

human EGFR on cells = biological target: T2, human EGFR on cells (human, UniProt P00533 25-1210); assay: flow cytometry on EGFR-CT26 cells, PE anti-human IgG Fc
T2 construct: whole, on cells; the cell line is named under assay; also called EGFR-CT26; EGFR/CT26 (EGFR+++, HER3-)

human HER3 on cells = biological target: T3, human HER3 on cells (human, UniProt P21860 20-1342); assay: flow cytometry on HER3-CT26 cells, PE anti-human IgG Fc
T3 construct: whole, on cells; Used as target for cells that carry HER3 alone (HER3-CT26) and for the anti-HER3 mAb on tumor lines that carry both receptors; the cell line is named under assay; also called HER3-CT26; HER3/CT26 (EGFR-, HER3+++)

[2] = biological target: T4, monkey HER3 (rhesus HER3, C-His Tag, Kactus Biosystem, HER-CM403) (rhesus monkey, UniProt H9ERZ8 20-643); assay: SPR, Biacore T200; antibody captured on ProA chip, antigen as analyte; 1:1 Langmuir fit
T4 construct: Bought soluble protein used as SPR analyte; not shown: C-terminal His tag

[3] = biological target: T1, human EGFR (His-Avi Tag, Kactus …); assay: as above
[4] = biological target: T5, human HER3 (His-Avi Tag, Kactus Biosystem, HER-HM403) (human, UniProt P21860 20-643); assay: as above
T5 construct: Bought soluble protein used as SPR analyte; also called hHER3; not shown: His-Avi tag

[5] = biological target: T6, monkey EGFR (rhesus EGFR, C-His Tag, Kactus Biosystem, EGF-CM101) (rhesus monkey, UniProt P55245 25-645, limits assumed); assay: as above
T6 construct: Bought soluble protein used as SPR analyte; not shown: C-terminal His tag

T4 sequence (H9ERZ8 entry or part of it): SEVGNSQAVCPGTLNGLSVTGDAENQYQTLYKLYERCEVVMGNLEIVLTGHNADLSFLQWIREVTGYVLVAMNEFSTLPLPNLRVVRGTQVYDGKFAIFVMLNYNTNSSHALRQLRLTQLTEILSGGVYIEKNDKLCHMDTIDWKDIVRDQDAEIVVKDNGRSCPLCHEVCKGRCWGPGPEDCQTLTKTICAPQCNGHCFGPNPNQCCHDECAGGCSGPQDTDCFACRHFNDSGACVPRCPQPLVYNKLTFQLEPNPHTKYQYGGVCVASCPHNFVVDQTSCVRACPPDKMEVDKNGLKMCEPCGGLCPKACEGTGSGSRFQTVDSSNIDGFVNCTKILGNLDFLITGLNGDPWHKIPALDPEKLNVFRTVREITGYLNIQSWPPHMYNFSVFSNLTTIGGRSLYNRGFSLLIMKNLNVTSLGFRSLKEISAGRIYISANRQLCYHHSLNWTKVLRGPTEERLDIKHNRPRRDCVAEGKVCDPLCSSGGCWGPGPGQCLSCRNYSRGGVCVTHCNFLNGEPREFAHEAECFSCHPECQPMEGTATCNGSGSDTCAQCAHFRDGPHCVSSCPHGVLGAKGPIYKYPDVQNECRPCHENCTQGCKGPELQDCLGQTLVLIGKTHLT

Binder | fold weaker affinity than its affinity for HER3 [1] [fold] | fold weaker affinity than the parent EGFR antibody [1] [fold] | EC50 (human EGFR on cells) [nM] | EC50 (human HER3 on cells) [nM] | Kd [2] [nM] | koff [2] [s⁻¹] | kon [2] [M⁻¹ s⁻¹] | Kd [3] [nM] | koff [3] [s⁻¹] | kon [3] [M⁻¹ s⁻¹] | Kd [4] [nM] | koff [4] [s⁻¹] | kon [4] [M⁻¹ s⁻¹] | Kd [5] [nM] | koff [5] [s⁻¹] | kon [5] [M⁻¹ s⁻¹]
DBXT001-01 (bispecific antibody, human IgG1, kappa, H1/L1 are the EGFR arm, H2/L2 the HER3 arm; one arm for each antigen; also called BsAb DBXT001-01; EGFR-HER3 BsAb) heavy 1: not shown light 1: not shown heavy 2: not shown light 2: DIQMTQSPSSLSASVGDRVTITCRASQDISNYLNWYQQKPGKAPKLLIYYTSILHSGVPSRFSGSGSGTDYTFTISSLQPEDIATYFCQQGDTLPPTFGGGTKLEIKSSASTKGPSVFPLAPSSKSTSGGTAALGCLVKDYFPEPVTVSWNSGALTSGVHTFPAVLQSSGLYSLSSVVTVPSSSLGTQTYICNVNHKPSNTKVDKKVEPKSC | ~16 | ~3 | 1.9 | 1.96 | 0.563 | 0.000157 | 278000 | 9.29 | 0.00055 | 59200 | 0.56 | 0.00018 | 322000 | 11.3 | 0.000534 | 47200
anti-HER3 mAb (antibody, human IgG1, kappa, V domains shown, expressed in CHO cells; also called HER3 parent mAb; parent HER3 antibody) VH: QVQLQESGPGLVKPSETLSLTCTVSGYSITSAYYWNWIRQPFGKGLEWMGYISYDGRNNFNPSLKNRVTISRDTSKNQFSLKLSSVTAADTAVYYCARDGDYDYFDYWGQGTTVTVSS VL: DIQMTQSPSSLSASVGDRVTITCRASQDISNYLNWYQQKPGKAPKLLIYYTSILHSGVPSRFSGSGSGTDYTFTISSLQPEDIATYFCQQGDTLPPTFGGGTKLEIKR |  |  |  | 0.28 |  |  |  |  |  |  | 0.493 | 0.000379 | 768000 |  |  | 
